# Test results: the supplement of paper PMC10724198
# ± gives the standard deviation of the averaged measurements.
# Test system: Saccharomyces cerevisiae
# Assay: protein stability index of tFT-peptide fusion (C-terminal peptide) (PSI (0-1 scale)); higher = more stable (slower turnover)
# Details: genetic background: cdc34-1; temperature: 37 C
# Description: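 MPS profiling in S. cerevisiae of the tFT-X12 degron library: putative degron peptides plus stable controls, 12 aa, fused to the C-terminus of a sfGFP-mCherry timer. Cells are FACS-sorted into 8 mCherry/sfGFP bins and deep-sequenced. PSI runs from 0 (unstable) to 1 (stable). Backgrounds are wild type, das1Δ and doa10Δ at 30 °C, and wild type, das1Δ, cdc34-1 and cdc53-1 at 37 °C; 2-3 technical replicates each.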
# 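Further: PSI is a weighted mean of sequencing reads over stability bins, variants kept only with over 10 reads, mCherry proximal and sfGFP distal, peptide attached via GGGS linker.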
row,Sequence,protein stability index
1,TMSGVTRCVLVL,0.521 ± 0.048
2,TNEWMDVKVFCY,0.668 ± 0.0073
3,TSFSSGEALGVG,0.437 ± 0.0066
4,TVHVIVVCRELA,0.4698 ± 0.0034
5,TVRLPLILPCVL,0.5752 ± 0.0049
6,TVRVWPRNLWFS,0.519 ± 0.048
7,TWGGGRVSLGVG,0.313 ± 0.029
8,TYHRSYLLATVV,0.49857 ± 0.00019
9,VACTCILVALVV,0.059 ± 0.0069
10,VAFLYCHFFYCI,0.502 ± 0.063
11,VAVFFFCRVFFL,0.248 ± 0.062
12,VCCYILFFLFPV,0.401 ± 0.0048
13,VCLRICLVTLMM,0.3 ± 0.019
14,VCPCCPYVMIAG,0.598 ± 0.061
15,VCSCLVLVFCCC,0.232 ± 0.018
16,VCVARICIWDFL,0.505 ± 0.043
17,VCWVYESWKCLA,0.438 ± 0.038
18,VCYLMRSLTFAY,0.4968 ± 0.0039
19,VECVCVVVVRRM,0.391 ± 0.0055
20,VFLCVRLGFIFL,0.419 ± 0.0062
21,VFLLCLGFLVFS,0.263 ± 0.011
22,VFLRRFGVPWVF,0.594 ± 0.016
23,VFLSCFFVSWVV,0.328 ± 0.019
24,VFLYVYAVWFLV,0.156 ± 0.027
25,VFSFLYHVVPVL,0.4374 ± 0.0012
26,VFVMRDGFLRKV,0.63323 ± 0.00049

row,Sequence,protein stability index
1,VFWISRLYLASY,0.474 ± 0.027
2,VGDFFVLVGFVA,0.493 ± 0.0097
3,VGDIRSFALWYA,0.699 ± 0.039
4,VGGGGRFWVCVG,0.657 ± 0.03
5,VGVSCLVFFGVV,0.644 ± 0.023
6,VIAYSLLSWGDF,0.308 ± 0.0034
7,VLDFSVPRHVLH,0.696 ± 0.014
8,VLFFCLVIYVGV,0.187 ± 0.0071
9,VLILFFLVVFYV,0.217 ± 0.015
10,VLLCASPMLAVV,0.343 ± 0.028
11,VLLCGCVWLWWG,0.437 ± 0.034
12,VLLFGLAFFFSF,0.422 ± 0.058
13,VLLGYPRILSLF,0.7 ± 0.059
14,VLLRSRLLRRLS,0.588 ± 0.055
15,VLRCIWLCFLSV,0.487 ± 0.025
16,VLRLVLFVLISV,0.311 ± 0.065
17,VLSCVWFVVVGV,0.247 ± 0.013
18,VLYWTGTLFVSL,0.208 ± 0.00082
19,VPIIVVVYVFVT,0.13 ± 0.022
20,VRFLLSLCCALL,0.588 ± 0.03
21,VRLYLRSCVVES,0.347 ± 0.061
22,VRMVIFSSVYLT,0.462 ± 0.002
23,VRWLVFFLFLFG,0.501 ± 0.011
24,VSCLDLCFVISR,0.647 ± 0.041
25,VSCYYVFLIPFW,0.463 ± 0.011
26,VSFLLYNFLSVF,0.286 ± 0.0083

row,Sequence,protein stability index
1,VSFLVSIFVSGV,0.189 ± 0.025
2,VSLLSLGYVFVY,0.286 ± 0.05
3,VSLLVFVVSSRV,0.345 ± 0.034
4,VSPPPLSPPLSR,0.677 ± 0.014
5,VTMTPSLCFSYS,0.688 ± 0.017
6,VTRLLLSRIDCY,0.437 ± 0.018
7,VVFLFVEAVVGV,0.0536 ± 0.018
8,VVFVVGAPPVLC,0.476 ± 0.018
9,VVGVVVCWGCGW,0.493 ± 0.02
10,VVPWLGYVSCFS,0.452 ± 0.031
11,VVRAVLCVCASV,0.4577 ± 0.0025
12,VVRYGGVIAFRG,0.841 ± 0.065
13,VVWCLLARVLLV,0.332 ± 0.017
14,VWICPTLFLLFS,0.486 ± 0.03
15,VYDVSVGVAVVG,0.44 ± 0.018
16,VYKSTHKIYILT,0.609 ± 0.011
17,VYQAFIFRMSLF,0.529 ± 0.026
18,VYRVTGSWLMWV,0.511 ± 0.059
19,VYTVGFVCWLVY,0.203 ± 0.0067
20,VYWRGLHLQRLL,0.681 ± 0.036
21,WALWGFVFWDWW,0.402 ± 0.049
22,WCGLFCRSVFVV,0.28221 ± 0.00025
23,WDEVVAIVVCPV,0.436 ± 0.016
24,WFALFYFLVSAF,0.189 ± 0.019
25,WFCYFSLYVFLL,0.0995 ± 0.02
26,WFFRCLFLLSLF,0.457 ± 0.0083

# Same assay, conditions: genetic background: cdc53-1; temperature: 37 C
row,Sequence,protein stability index
1,TMSGVTRCVLVL,0.526 ± 0.04
2,TNEWMDVKVFCY,0.701 ± 0.052
3,TSFSSGEALGVG,0.503 ± 0.021
4,TVHVIVVCRELA,0.518 ± 0.015
5,TVRLPLILPCVL,0.573 ± 0.031
6,TVRVWPRNLWFS,0.677 ± 0.017
7,TWGGGRVSLGVG,0.3966 ± 0.0028
8,TYHRSYLLATVV,0.55 ± 0.08
9,VACTCILVALVV,0.164 ± 0.02
10,VAFLYCHFFYCI,0.531 ± 0.013
11,VAVFFFCRVFFL,0.339 ± 0.005
12,VCCYILFFLFPV,0.522 ± 0.008
13,VCLRICLVTLMM,0.444 ± 0.011
14,VCPCCPYVMIAG,0.641 ± 0.04
15,VCSCLVLVFCCC,0.222 ± 0.018
16,VCVARICIWDFL,0.589 ± 0.027
17,VCWVYESWKCLA,0.571 ± 0.043
18,VCYLMRSLTFAY,0.546 ± 0.006
19,VECVCVVVVRRM,0.497 ± 0.03
20,VFLCVRLGFIFL,0.486 ± 0.0065
21,VFLLCLGFLVFS,0.341 ± 0.046
22,VFLRRFGVPWVF,0.664 ± 0.019
23,VFLSCFFVSWVV,0.403 ± 0.047
24,VFLYVYAVWFLV,0.228 ± 0.0084
25,VFSFLYHVVPVL,0.49 ± 0.013
26,VFVMRDGFLRKV,0.7055 ± 0.004

row,Sequence,protein stability index
1,VFWISRLYLASY,0.524 ± 0.023
2,VGDFFVLVGFVA,0.538 ± 0.011
3,VGDIRSFALWYA,0.765 ± 0.014
4,VGGGGRFWVCVG,0.73937 ± 0.00061
5,VGVSCLVFFGVV,0.653 ± 0.0091
6,VIAYSLLSWGDF,0.341 ± 0.019
7,VLDFSVPRHVLH,0.7655 ± 0.0041
8,VLFFCLVIYVGV,0.23702 ± 9.6e-05
9,VLILFFLVVFYV,0.294 ± 0.0088
10,VLLCASPMLAVV,0.356 ± 0.022
11,VLLCGCVWLWWG,0.507 ± 0.006
12,VLLFGLAFFFSF,0.4953 ± 0.0026
13,VLLGYPRILSLF,0.8278 ± 0.002
14,VLLRSRLLRRLS,0.6547 ± 0.0063
15,VLRCIWLCFLSV,0.5129 ± 0.0034
16,VLRLVLFVLISV,0.348 ± 0.019
17,VLSCVWFVVVGV,0.316 ± 0.034
18,VLYWTGTLFVSL,0.355 ± 0.0038
19,VPIIVVVYVFVT,0.247 ± 0.11
20,VRFLLSLCCALL,0.671 ± 0.018
21,VRLYLRSCVVES,0.368 ± 0.0011
22,VRMVIFSSVYLT,0.509 ± 0.03
23,VRWLVFFLFLFG,0.481 ± 0.013
24,VSCLDLCFVISR,0.681 ± 0.022
25,VSCYYVFLIPFW,0.6 ± 0.036
26,VSFLLYNFLSVF,0.418 ± 0.0077

row,Sequence,protein stability index
1,VSFLVSIFVSGV,0.246 ± 0.036
2,VSLLSLGYVFVY,0.27 ± 0.03
3,VSLLVFVVSSRV,0.418 ± 0.0047
4,VSPPPLSPPLSR,0.7238 ± 0.0031
5,VTMTPSLCFSYS,0.684 ± 0.023
6,VTRLLLSRIDCY,0.445 ± 0.0057
7,VVFLFVEAVVGV,0.0519 ± 0.021
8,VVFVVGAPPVLC,0.481 ± 0.036
9,VVGVVVCWGCGW,0.555 ± 0.057
10,VVPWLGYVSCFS,0.487 ± 0.027
11,VVRAVLCVCASV,0.489 ± 0.0069
12,VVRYGGVIAFRG,0.641 ± 0.085
13,VVWCLLARVLLV,0.4 ± 0.02
14,VWICPTLFLLFS,0.509 ± 0.0088
15,VYDVSVGVAVVG,0.464 ± 0.041
16,VYKSTHKIYILT,0.729 ± 0.023
17,VYQAFIFRMSLF,0.672 ± 0.0078
18,VYRVTGSWLMWV,0.5758 ± 0.0051
19,VYTVGFVCWLVY,0.27 ± 0.013
20,VYWRGLHLQRLL,0.7679 ± 0.0013
21,WALWGFVFWDWW,0.476 ± 0.016
22,WCGLFCRSVFVV,0.363 ± 0.0043
23,WDEVVAIVVCPV,0.421 ± 0.0076
24,WFALFYFLVSAF,0.257 ± 0.01
25,WFCYFSLYVFLL,0.149 ± 0.0067
26,WFFRCLFLLSLF,0.544 ± 0.028
